Broadly, the share remaining is what is left of the initial amount, in per cent.

Data set [1] is described as follows: Serum stability in mouse serum. It is filed as in vitro ADME. The following applies: 37 °C, ethanol precipitation, radio RP-HPLC. As for the experimental part:
The serum stability of [^64Cu]PDC-1 was measured in both human and mouse serum at 37 °C at 1, 4, and 24 h.
Mouse serum or human serum (0.5 mL) was combined with an aliquot of [^64Cu]PDC-1 (≤25 μL, 3.9–4.7 MBq) and incubated at 37 °C. At each time point (1, 4, and 24 h), an aliquot (50–200 μL) was taken, proteins precipitated with absolute ethanol and removed by centrifugation at 1500g for 4 min. The ethanol solution was diluted with water (1 mL) and analyzed by RP-HPLC.

For data set [2], the system named is cells expressing the integrin αvβ6. As to the kind of experiment: Internalization assay. It is filed as cell-based. Conditions: all cells expressing the integrin αvβ6; acidic wash pH 2.5; γ-counter. The source says: Binding to cells with minimal to no expression of integrin αvβ6 was low at 4.4 ± 0.1% to DX3puro cells and 7.9 ± 0.4% to pancreatic MIA PaCa-2 cells. Binding of [^64Cu]PDC-1 to DX3puroβ6 (+) and BxPC-3 (+) was reduced by adding increasing amounts of DOTA-PDC-1, illustrating that the αvβ6-selective uptake could be blocked (Figure S3). Internalization of [^64Cu]-PDC-1 into cells was high with >50% of the bound radioactivity internalized for all cells expressing the integrin αvβ6. In comparison, cell binding of [^64Cu]2 to DX3puroβ6 (+) cells was 58.8 ± 2.3, and 3.3 ± 0.4% to the DX3puro (−) cells.
Cell binding and internalization assay. Binding and internalization were determined as previously described. […] The fraction of bound radioactivity was determined with a γ-counter (by measuring cell pellet and combined supernatants). To determine the fraction of internalized radioactivity, the cells were re-pelleted, and re-suspended in acidic wash buffer (0.2 M sodium acetate, 0.5 M sodium chloride, pH = 2.5, 300 μL, 4 °C, 5 min) to release surface bound activity, followed by a wash with PBS (300 μL). The internalized fraction was determined with a γ-counter (cell pellet vs. radioactivity released into supernatant). A Wizard 1470 or Wizard 2 2470 automatic γ-counter (Perkin-Elmer, Waltham, MA) was used to measure radioactivity samples. […]

Data set [3] is described as follows: Biodistribution, both tumor models. Type of data set: in vivo, mice. The following applies: female, athymic nude, mouse, iv, total radioactivity; for tissue uptake: all time points. As for the experimental part:
(§1) Aliquots of the formulated [^64Cu]PDC-1 in isotonic 0.9% saline (4.81–5.74 MBq, 1.7–2.1 μg, 0.26–0.31 nmol, 100 μL, pH 7.2) were injected i.v. as described above. Following the conscious uptake period, the mice were anesthetized (5% isoflurane), euthanized, and dissected (n ≥ 3/model/time point [4, 24, and 48 h]; the 48 h time point also included the imaging animals sacrificed after the PET scans). Tissues were collected, washed, weighed, and radioactivity measured in a γ-counter. Calibrated, decay-corrected radioactivity was expressed as the percentage of injected dose per gram of tissue (% ID/g). Data are reported as mean ± SD. […] For in vivo blocking studies, DOTA-2 (50 mg/kg, 205 nmol, 1.4 mg in 100 μL 0.9% saline) was injected i.v. into two animals/tumor model 10 min prior to [^64Cu]PDC-1. The animals were sacrificed after 4 h, tissues collected, washed, weighed, and radioactivity measured in a γ-counter.

Data set [4] has as its system DX3puroβ6/DX3puro and BxPC-3 xenograft tumor models. As to the kind of experiment: Biodistribution, both tumor models. The following applies: DOTA-2 (205 nmol) 10 min prior; 4 h p.i.; both models. Type of data set: in vivo, mice. On the procedure:
as §1

Like-named read-outs stand apart in the source and are kept apart here.

Regarding `CC[C@H](C)[C@@H]([C@@H](CC(=O)N1CCC[C@H]1[C@H](OC)[C@@H](C)C(=O)N[C@H](C)[C@@H](O)c1ccccc1)OC)N(C)C(=O)[C@@H](NC(=O)[C@H](C(C)C)N(C)C(=O)OCc1ccc(NC(=O)[C@H](CCCNC(N)=O)NC(=O)[C@@H](NC(=O)CCOCCOCCNC(=O)CCN2C(=O)CC(SC[C@H](NC(=O)CN3CCN(CC(=O)O)CCN(CC(=O)O)CCN(CC(=O)O)CC3)C(=O)NCCOCCOCCOCCOCCOCCOCCOCCOCCOCCOCCOCCOCCOCCOCCOCCOCCOCCOCCOCCOCCOCCOCCOCCOCCOCCOCCOCCOCCC(=O)N[C@@H](CC(N)=O)C(=O)N[C@@H](C)C(=O)N[C@H](C(=O)N3CCC[C@H]3C(=O)N[C@@H](CC(N)=O)C(=O)N[C@@H](CC(C)C)C(=O)N[C@@H](CCCNC(=N)N)C(=O)NCC(=O)N[C@@H](CC(=O)O)C(=O)N[C@@H](CC(C)C)C(=O)N[C@@H](CCC(N)=O)C(=O)N[C@H](C(=O)N[C@@H](CC(C)C)C(=O)N[C@@H](C)C(=O)N[C@@H](CCC(N)=O)C(=O)N[C@@H](CCCNC(=N)N)C(=O)N[C@H](C(=O)N[C@@H](C)C(=O)N[C@@H](CCCNC(=N)N)C(=O)N[C@H](C(=O)NCCOCCOCCOCCOCCOCCOCCOCCOCCOCCOCCOCCOCCOCCOCCOCCOCCOCCOCCOCCOCCOCCOCCOCCOCCOCCOCCOCCOCCC(N)=O)[C@@H](C)O)C(C)C)C(C)C)C(C)C)C2=O)C(C)C)cc1)C(C)C` (stereo partly drawn) [[^64Cu]PDC-1, metal not drawn], the share remaining at 1 h in data set [1] (1 h) is 89%. Also, the share remaining at 4 h in data set [1] (4 h) stood at 49%. Moreover, in data set [1] (24 h), the fraction remaining at 24 h is 3%. For the same compound, in data set [2], the “Internalization, fraction of the bound radioactivity internalized” value is listed as above 50%. Also, the excreta dose per gram or mL at 4 h in data set [3] (faeces, 4 h, read-out: Fecal matter) came out at 12 %ID/g. The excreta dose per gram or mL at 48 h in data set [3] (faeces, 48 h, read-out: Fecal matter) came to 1.5 %ID/g. Moreover, the tissue uptake at 4 h in data set [3] (kidney, 4 h, both models, read-out: Kidney uptake) is 50 to 64 %ID/g; in data set [3] (large intestines, 4 h, read-out: Large intestines uptake), 6 %ID/g; in data set [3] (small intestines, 4 h, read-out: Small intestines uptake) it was 4 to 5 %ID/g; in data set [3] (stomach, 4 h, read-out: Stomach uptake), 9 %ID/g. The tissue uptake at 48 h in data set [3] (kidney, 48 h, both models, read-out: Kidney uptake) was at most 25 %ID/g; in data set [3] (large intestines, 48 h, read-out: Large intestines uptake) it was 3 %ID/g. The tissue uptake in data set [3] (muscle, read-out: Muscle uptake) was at most 0.9 %ID/g; in data set [3] (pancreas, read-out: Pancreas uptake), at most 0.5 %ID/g. Besides, the “Reduction of uptake in the αvβ6 (+) tumors by blocking” value in data set [4] is on record as 87–91%.

The record behind these values is publication PMC10388305, “Synthesis and Evaluation of a Monomethyl Auristatin E—Integrin αvβ6 Binding Peptide–Drug Conjugate for Tumor Targeted Drug Delivery” (Journal of Medicinal Chemistry, 2023).
